For 39 variants, self-cleavage results are on record in the RNAGym collection of RNA variant scans (doi:10.7554/elife.80360).

B1: CPEB3 Ribozyme (parent)
chain: GGGGGCCACAGCAGAAGCGUUCACGUCGCGGCCCCUGUCAGAUUCUGGUGAAUCUGCGAAUUCUGCUGU

The variants in this data set derive from B1. Briefly: self-cleavage, relative activity (ratio to wild type); higher = more cleavage; co-transcriptional.
Take GGGGGCCACAGUAGAAGCGUUCACGUCGCGGCCCCUGUCAGAUUCUGGUGAAUCUGCGAAUUCUGCGGU [C12U U67G]: the self-cleavage amounted to 0.938.

Take GGGGGCCACAGCCGAAGCGUUCACGUCGCGGCCCCUGUCCGAUUCUGGUGAAUCUGCGAAUUCUGCUGU [A13C A40C]: the self-cleavage was determined as 0.247.

For GGGGGCCACAGCCGAAGCGUUCACGUCGCGGCCCCUGUCUGAUUCUGGUGAAUCUGCGAAUUCUGCUGU [A13C A40U], the self-cleavage came out at 0.23.

With GGGGGCCACAGCCGAAGCGUUCACGUCGCGGCCGCUGUCAGAUUCUGGUGAAUCUGCGAAUUCUGCUGU [A13C C34G], the self-cleavage is 0.498.

With GGGGGCCACAGCCGAGGCGUUCACGUCGCGGCCCCUGUCAGAUUCUGGUGAAUCUGCGAAUUCUGCUGU [A13C A16G], the self-cleavage was 0.682.

In the case of GGGGGCCACAGCCGAUGCGUUCACGUCGCGGCCCCUGUCAGAUUCUGGUGAAUCUGCGAAUUCUGCUGU [A13C A16U], the self-cleavage amounted to 0.185.

In the case of GGGGGCCACAGCCGACGCGUUCACGUCGCGGCCCCUGUCAGAUUCUGGUGAAUCUGCGAAUUCUGCUGU [A13C A16C], the self-cleavage worked out at 0.102.

For the variant GGGGGCCACAGCCAAAGCGUUCACGUCGCGGCCCCUGUCAGAUUCUGGUGAAUCUGCGAAUUCUGCUGU [A13C G14A], the self-cleavage was 0.251.

For the variant GGGGGCCACAGCCUAAGCGUUCACGUCGCGGCCCCUGUCAGAUUCUGGUGAAUCUGCGAAUUCUGCUGU [A13C G14U], the self-cleavage was found to be 0.22.

With GGGGGCCACAGCCCAAGCGUUCACGUCGCGGCCCCUGUCAGAUUCUGGUGAAUCUGCGAAUUCUGCUGU [A13C G14C], the self-cleavage was found to be 0.228.

With GGGGGCCACAGCCGAAGCGUUCACGUCGCGGCCCCUGUCAGAUUCUGGUGAAUCUGAGAAUUCUGCUGU [A13C C57A], the self-cleavage was 0.276.

In the case of GGGGGCCACAGCCGGAGCGUUCACGUCGCGGCCCCUGUCAGAUUCUGGUGAAUCUGCGAAUUCUGCUGU [A13C A15G], the self-cleavage worked out at 0.662.

As to GGGGGCCACAGCCGAAGCGUUCACCUCGCGGCCCCUGUCAGAUUCUGGUGAAUCUGCGAAUUCUGCUGU [A13C G25C], the self-cleavage worked out at 0.0875.

With GGGGGCCACAGCCGAAGCGUUCACGUCGCGGCCCCUGUCAGUUUCUGGUGAAUCUGCGAAUUCUGCUGU [A13C A42U], the self-cleavage is 0.561.

For the variant GGGGGCCACAGCCGAAGCGUUCACGUCGCGGCCCCUGUCAGGUUCUGGUGAAUCUGCGAAUUCUGCUGU [A13C A42G], the self-cleavage amounted to 0.506.

Consider GGGGGCCACAGCCGAAGCUUUCACGUCGCGGCCCCUGUCAGAUUCUGGUGAAUCUGCGAAUUCUGCUGU [A13C G19U], for which the self-cleavage was 0.138.

Regarding GGGGGCCACAGUAGAAGCGUUCACGUCGCGGCCCCUGUCAGAUUCUGGUGAAUCUGCGAAUUCUGCUGC [C12U U69C], the self-cleavage is 1.07.

GGGGGCCACAGCCGAAGCGUUCACGUCGCGGCCCCUAUCAGAUUCUGGUGAAUCUGCGAAUUCUGCUGU [A13C G37A]: the self-cleavage turned out to be 0.14.

Take GGGGGCCACAGCCGAAGCGUUCACGUCGCGGCCCCUUUCAGAUUCUGGUGAAUCUGCGAAUUCUGCUGU [A13C G37U]: the self-cleavage was determined as 0.225.

As to GGGGGCCACAGCCGAAGCGUUCACGUCGCGGCCCCUGUUAGAUUCUGGUGAAUCUGCGAAUUCUGCUGU [A13C C39U], the self-cleavage worked out at 0.555.

As to GGGGGCCACAGCCGAAGCGUUCACGUCGCGGCCCCUGUCAGAUUCUUGUGAAUCUGCGAAUUCUGCUGU [A13C G47U], the self-cleavage worked out at 0.959.

As for GGGGGCCACAGCCGAAGCGUUCACGUCGCGGCCCCUGUCAGAUUCUCGUGAAUCUGCGAAUUCUGCUGU [A13C G47C], the self-cleavage came to 0.928.

Take GGGGGCCACAGCCGAAGCGUUCAAGUCGCGGCCCCUGUCAGAUUCUGGUGAAUCUGCGAAUUCUGCUGU [A13C C24A]: the self-cleavage turned out to be 0.402.

In the case of GGGGGCCACAGCCGAAGCGUUCAUGUCGCGGCCCCUGUCAGAUUCUGGUGAAUCUGCGAAUUCUGCUGU [A13C C24U], the self-cleavage is 0.543.

For the variant GGGGGCCACAGCCGAAGCGUUCACGUCGCGGCCCCUGUCAGAUUCUGGUGGAUCUGCGAAUUCUGCUGU [A13C A51G], the self-cleavage worked out at 0.903.

GGGGGCCACAGCCGAAGCGUUCACGUCGCCGCCCCUGUCAGAUUCUGGUGAAUCUGCGAAUUCUGCUGU [A13C G30C]: the self-cleavage came to 0.451.

For GGGGGCCACAGCCGAAGCGUUCACGUCGCUGCCCCUGUCAGAUUCUGGUGAAUCUGCGAAUUCUGCUGU [A13C G30U], the self-cleavage turned out to be 0.281.

Turning to GGGGGCCACAGCCGAAGCGUUCACGUCGCGGCCCCUGUCAUAUUCUGGUGAAUCUGCGAAUUCUGCUGU [A13C G41U], the self-cleavage was 0.349.

In the case of GGGGGCCACAGCCGAAGCGUUCACGUCGCGGCCCCUGUCACAUUCUGGUGAAUCUGCGAAUUCUGCUGU [A13C G41C], the self-cleavage was determined as 0.214.

Turning to GGGGGCCACAGCCGAAGUGUUCACGUCGCGGCCCCUGUCAGAUUCUGGUGAAUCUGCGAAUUCUGCUGU [A13C C18U], the self-cleavage was found to be 0.262.

With GGGGGCCACAGCCGAAGGGUUCACGUCGCGGCCCCUGUCAGAUUCUGGUGAAUCUGCGAAUUCUGCUGU [A13C C18G], the self-cleavage came to 0.0963.

Turning to GGGGGCCACAGCCGAAGAGUUCACGUCGCGGCCCCUGUCAGAUUCUGGUGAAUCUGCGAAUUCUGCUGU [A13C C18A], the self-cleavage is 0.181.

For GGGGGCCACAGUAGAAGCGUUCACGUCGCGGCCCCUGUCAGAUUCUGGUGAAGCUGCGAAUUCUGCUGU [C12U U53G], the self-cleavage came out at 0.771.

As to GGGGGCCACAGCCGAAGCGUUCACGUCGCGUCCCCUGUCAGAUUCUGGUGAAUCUGCGAAUUCUGCUGU [A13C G31U], the self-cleavage worked out at 0.508.

As to GGGGGCCACAGCCGAAGCGUUCACGUCGCGACCCCUGUCAGAUUCUGGUGAAUCUGCGAAUUCUGCUGU [A13C G31A], the self-cleavage is 0.654.

As to GGGGGCCACAGUAGAAGCGUUCACGUCGCGGCCCCUGUCAGAUUCUGGUGAAUCUGCGAAUACUGCUGU [C12U U62A], the self-cleavage is 0.819.

For GGGGGCCACAGUAGAAGCGUUCACGUCGCGGCCCCUGUCAGAUUCUGGUGAAUCUGCGAAUGCUGCUGU [C12U U62G], the self-cleavage worked out at 0.542.

For GGGGGCCACAGCCGAAGCGUUCACGUCGAGGCCCCUGUCAGAUUCUGGUGAAUCUGCGAAUUCUGCUGU [A13C C29A], the self-cleavage was 0.21.

On to GGGGGCCACAGCCGAAGCGUUCACGUCGUGGCCCCUGUCAGAUUCUGGUGAAUCUGCGAAUUCUGCUGU [A13C C29U], for which the self-cleavage worked out at 0.0773.
